Results reported in US20060183688A1 (LES LABORATORIES SERVIER, published 2006).
No end group written: not given here. fluorescein = fluorescein label at the N-terminal end

Key:
[1] = biological target: T1, fusion protein glutathione-S-transferase-Bcl-W (UniProt P08515 1-218 = GST; Q92843 1-171); assay: fluorescence polarisation, 15 nM fluorescein-peptide, GST-Bcl-W titrated 1 nM to 5 uM
T1 construct: also called GST-Bcl-W
Experimental: (§1) A 15 nM solution of the peptide obtained in Example 1 labelled with fluorescein at the N-terminal end is mixed with a solution containing the fusion protein GST-Bcl-XL or GST-Bcl-W at a concentration varying from 1 nM to 5 μM in a buffer containing Na₂HPO₄ 20 mM pH 7.4, EDTA 1 mM, NaCl 50 mM, pluronic acid F-68 0.05%. The fluorescence polarisation is then measured by the En Vision apparatus (Packard Perkin-Elmer).

[2] = biological target: T2, fusion protein glutathione-S-transferase-Bcl-XL (UniProt P08515 1-218 = GST; Q07817 1-209); assay: fluorescence polarisation, 15 nM fluorescein-peptide, GST-Bcl-XL titrated 1 nM to 5 uM
T2 construct: also called GST-Bcl-XL
Experimental: as §1

T2 sequence (P08515 1-218, tags or fused parts left off): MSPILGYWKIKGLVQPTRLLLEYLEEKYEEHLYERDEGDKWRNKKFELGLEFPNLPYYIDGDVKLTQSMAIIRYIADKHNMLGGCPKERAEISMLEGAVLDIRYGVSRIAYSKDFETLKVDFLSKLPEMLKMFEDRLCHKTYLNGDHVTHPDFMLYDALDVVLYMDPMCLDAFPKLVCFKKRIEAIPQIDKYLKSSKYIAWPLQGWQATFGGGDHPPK
T1 sequence (P08515 1-218, tags or fused parts left off): as above

B1: peptide obtained in Example 1 labelled with fluorescein at the N-terminal end (peptide)
peptide: fluorescein-DTRRSMVFARHLREVGDEFRSR
notes: Used at 15 nM in fluorescence polarisation; also called ID; NO.1
[1]
  Kd: 411 nM
[2]
  Kd: 215 nM
